Experimental data from the supplement of paper PMC10567573.

B1: KRT18 (parent)
chain: KSQDLAKIMADIRAQYDELARKNR

Variants of: B1
Assay: protein stability index of a GFP-peptide fusion (GPS, HEK-293T) (PSI 1-6); higher = more stable
Details: c terminus: a fixed tail appended
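Further: lentivirally expressed fusions sorted by FACS into six bins by GFP to DsRed ratio, PSI derived from sequencing read proportions per bin multiplied by bin number.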

Point of comparison: KSQMLAKIMADIRAQYDELARKNR [D4M], protein stability index 1.99. Against it:
- KSQDLAKIMADIRAQYDELAYKNR [R21Y] — higher, 2.65
- KSQDLAKIMADIRAQYDELAVKNR [R21V] — lower, 1.91
- KSQDLAKIMADIRAQYDELAAKNR [R21A] — higher, 3.1
- KSQDLAKIMADIRAQYDELAHKNR [R21H] — higher, 3.26
- KSQDLAKIMADIRAQYDELATKNR [R21T] — higher, 2.83
- KRQDLAKIMADIRAQYDELARKNR [S2R] — higher, 2.56
- KMQDLAKIMADIRAQYDELARKNR [S2M] — higher, 2.04
- KCQDLAKIMADIRAQYDELARKNR [S2C] — higher, 2.14
- KSQDLAKIMADIRAQYDELGRKNR [A20G] — higher, 3.19
- KSQDLAKIMADIRAQYDELNRKNR [A20N] — higher, 2.93
- KSQDLAKIMADIRAQYDELHRKNR [A20H] — higher, 3.12
- KSQDLAKIMADIRAQYDELPRKNR [A20P] — higher, 2.98
- KSQDLAKIMADIRAQYDELERKNR [A20E] — higher, 4.03
- KSQDLAKIMADIRAQYDELTRKNR [A20T] — higher, 2.52
- KSQDLAKIMADIRAQYDELWRKNR [A20W] — lower, 1.67
- KSQDLAKFMADIRAQYDELARKNR [I8F] — lower, 1.64
- KSQDLAKQMADIRAQYDELARKNR [I8Q] — higher, 4.1
- KSQDLAKPMADIRAQYDELARKNR [I8P] — higher, 4.5
- KSQDLAKSMADIRAQYDELARKNR [I8S] — higher, 4.34
- KSQDLAKLMADIRAQYDELARKNR [I8L] — higher, 3.13
- KSQDLAKWMADIRAQYDELARKNR [I8W] — higher, 2.4
- KSQDLAKDMADIRAQYDELARKNR [I8D] — higher, 4.13
- KSQDLAKIMADIYAQYDELARKNR [R13Y] — lower, 1.75
- KSQDLAKIMADILAQYDELARKNR [R13L] — higher, 2.3
- KSQDLAKIMADIAAQYDELARKNR [R13A] — higher, 2.47
- KSQDLAKIMADISAQYDELARKNR [R13S] — higher, 2.73
- KSQDLAKIMADIVAQYDELARKNR [R13V] — higher, 2.42
- KSQDLAKIMADIGAQYDELARKNR [R13G] — higher, 2.8
- KSQDLAKIMADIWAQYDELARKNR [R13W] — higher, 2.79
- KSQDLAKIMADIEAQYDELARKNR [R13E] — higher, 3.75
- KSQDLAKIMADITAQYDELARKNR [R13T] — higher, 2.78
- KSQDLAKIMADIIAQYDELARKNR [R13I] — lower, 1.92
- KSQDLAKIMADIRAQYQELARKNR [D17Q] — higher, 2.13
- KSQDLAKIMADIRAQYTELARKNR [D17T] — higher, 2.27
- KSQDLAKIMADIRAQYWELARKNR [D17W] — lower, 1.92
- KSQDLAKIMADIRAQYFELARKNR [D17F] — higher, 2.14
- KSQDLAKIMADIRAQYHELARKNR [D17H] — higher, 2.67
- KSQDLAKIMADIRAQYRELARKNR [D17R] — higher, 2.61
- KSQDLAKIMADIRAQYSELARKNR [D17S] — higher, 2.41
- KSQDLAKIMADIRAQTDELARKNR [Y16T] — higher, 3.9
- KSQDLAKIMADIRAQIDELARKNR [Y16I] — higher, 3.08
- KSQDLAKIMADIRAQFDELARKNR [Y16F] — higher, 2.83
- KSQDLAKIMADIRAQQDELARKNR [Y16Q] — higher, 3.89
- KSQDLAKIMADIRAQMDELARKNR [Y16M] — higher, 3.31
- KSQDLAKIMADIRAQWDELARKNR [Y16W] — higher, 2.67
- KSQDLAKIMADGRAQYDELARKNR [I12G] — higher, 4.45
- KSQDLAKIMADDRAQYDELARKNR [I12D] — higher, 4.77
- KSQDLAKIMADLRAQYDELARKNR [I12L] — higher, 2.65
- KSQDLAKIMADIRAQYDELARKER [N23E] — higher, 3.83
- KSQDLAKIMADIRAQYDELARKMR [N23M] — higher, 2.02
- KSQDLAKIMADIRAQYDELARKIR [N23I] — higher, 2.58
- KSQDLAKIMADIRAQYDELARKSR [N23S] — higher, 3.29
- KSQDLAKIMADIRAQYDELARKVR [N23V] — higher, 3.04
- KSQDLAKIMADIRAQYDELARKTR [N23T] — higher, 2.88
- KSQDLAKIMADIRAQYDELARKQR [N23Q] — higher, 2.65
- KSQDLAKIMADIRAQYDELARKYR [N23Y] — lower, 1.94
- KSQDLAKIMADIRAQYDELARKHR [N23H] — higher, 2.56
- KSQDLAKIMADIRAQYDELARKLR [N23L] — higher, 2.51
- KSQDLAKIMADIRAQYDELARKNQ [R24Q] — higher, 2.95
- KSQDLAKIMADIRAQYDELARKND [R24D] — higher, 3.81
- KSQDLAKIMADIRAQYDELARKNL [R24L] — lower, 1.69
- KSQDLAKIMADIRAQYDELARKNI [R24I] — higher, 2.1
- KSQDLAKIMADIRAQYDELARKNC [R24C] — lower, 1.92
- KSQDLAKIMADIRAQYDELARKNH [R24H] — higher, 2.81
- KSQPLAKIMADIRAQYDELARKNR [D4P] — higher, 2.68
- KSQSLAKIMADIRAQYDELARKNR [D4S] — higher, 2.38
- KSQYLAKIMADIRAQYDELARKNR [D4Y] — lower, 1.88
- KSQCLAKIMADIRAQYDELARKNR [D4C] — lower, 1.64
- KSQKLAKIMADIRAQYDELARKNR [D4K] — lower, 1.98
- KSQNLAKIMADIRAQYDELARKNR [D4N] — higher, 2.6
- KSQHLAKIMADIRAQYDELARKNR [D4H] — higher, 3.03
- KSQGLAKIMADIRAQYDELARKNR [D4G] — higher, 3.18
- KSQDQAKIMADIRAQYDELARKNR [L5Q] — higher, 4.06
- KSQDFAKIMADIRAQYDELARKNR [L5F] — higher, 2.45
- KSQDDAKIMADIRAQYDELARKNR [L5D] — higher, 4.16
- KSQDEAKIMADIRAQYDELARKNR [L5E] — higher, 3.94
- KSQDYAKIMADIRAQYDELARKNR [L5Y] — higher, 2.19
- KSQDGAKIMADIRAQYDELARKNR [L5G] — higher, 4.49
- KSQDSAKIMADIRAQYDELARKNR [L5S] — higher, 4.1
- KSQDVAKIMADIRAQYDELARKNR [L5V] — higher, 3.24
- KSQDPAKIMADIRAQYDELARKNR [L5P] — higher, 3.59
- KSQDNAKIMADIRAQYDELARKNR [L5N] — higher, 4.26
- KSQDKAKIMADIRAQYDELARKNR [L5K] — higher, 3.75
- KSQDMAKIMADIRAQYDELARKNR [L5M] — higher, 2.99
- KSNDLAKIMADIRAQYDELARKNR [Q3N] — higher, 3.25
- KSLDLAKIMADIRAQYDELARKNR [Q3L] — higher, 2.49
- KSSDLAKIMADIRAQYDELARKNR [Q3S] — higher, 2.69
- KSDDLAKIMADIRAQYDELARKNR [Q3D] — higher, 3.09
- KSPDLAKIMADIRAQYDELARKNR [Q3P] — higher, 2.75
- KSFDLAKIMADIRAQYDELARKNR [Q3F] — higher, 2.46
- KSIDLAKIMADIRAQYDELARKNR [Q3I] — higher, 2.35
- KSVDLAKIMADIRAQYDELARKNR [Q3V] — higher, 2.34
- KSHDLAKIMADIRAQYDELARKNR [Q3H] — higher, 2.13
